Target: purified pig brain plasma membrane Ca2+-ATPase (PMCA) (pig) (UniProt P23220)
UniProt P23220, sequence (P23220 whole entry): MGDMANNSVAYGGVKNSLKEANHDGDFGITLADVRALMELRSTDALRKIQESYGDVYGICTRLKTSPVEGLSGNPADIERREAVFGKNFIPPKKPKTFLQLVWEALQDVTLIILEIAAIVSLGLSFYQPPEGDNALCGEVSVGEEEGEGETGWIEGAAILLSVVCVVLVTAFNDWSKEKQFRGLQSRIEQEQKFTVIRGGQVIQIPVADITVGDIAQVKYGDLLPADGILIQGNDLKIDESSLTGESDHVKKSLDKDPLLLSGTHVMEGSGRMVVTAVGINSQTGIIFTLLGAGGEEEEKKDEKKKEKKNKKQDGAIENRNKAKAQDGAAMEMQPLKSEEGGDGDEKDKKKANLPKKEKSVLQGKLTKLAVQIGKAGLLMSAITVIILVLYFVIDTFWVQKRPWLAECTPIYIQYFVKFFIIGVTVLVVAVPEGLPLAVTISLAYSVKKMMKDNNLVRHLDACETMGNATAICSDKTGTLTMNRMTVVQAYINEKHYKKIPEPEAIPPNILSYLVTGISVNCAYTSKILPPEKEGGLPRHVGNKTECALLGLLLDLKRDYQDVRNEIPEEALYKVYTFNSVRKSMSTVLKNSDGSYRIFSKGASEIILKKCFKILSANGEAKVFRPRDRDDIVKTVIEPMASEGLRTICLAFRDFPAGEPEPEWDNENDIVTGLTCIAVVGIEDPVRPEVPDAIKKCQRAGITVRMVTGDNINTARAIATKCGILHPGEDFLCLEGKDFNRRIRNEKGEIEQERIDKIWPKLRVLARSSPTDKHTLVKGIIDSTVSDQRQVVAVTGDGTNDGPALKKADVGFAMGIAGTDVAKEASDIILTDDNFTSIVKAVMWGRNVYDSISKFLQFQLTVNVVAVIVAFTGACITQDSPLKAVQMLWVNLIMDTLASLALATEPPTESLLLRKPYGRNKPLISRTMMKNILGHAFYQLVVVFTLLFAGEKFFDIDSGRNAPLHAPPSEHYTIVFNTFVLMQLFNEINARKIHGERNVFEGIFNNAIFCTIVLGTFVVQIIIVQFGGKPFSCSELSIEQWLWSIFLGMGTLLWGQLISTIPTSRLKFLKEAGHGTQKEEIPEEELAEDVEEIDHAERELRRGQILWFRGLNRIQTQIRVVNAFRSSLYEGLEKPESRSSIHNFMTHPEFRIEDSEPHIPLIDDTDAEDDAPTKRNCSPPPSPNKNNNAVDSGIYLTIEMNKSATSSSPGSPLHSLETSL

Ca2+-ATPase activity of purified pig brain PMCA reconstituted in PC, sorcin 12.5-50 nM in the assay medium, with Ca2+: fold activation: 1.8 fold | Ca2+-ATPase activity of purified pig brain PMCA reconstituted in PC: EC50 of activation by sorcin (in the assay medium): 12.5 nM
B1: Recombinant Human SRI (sorcin), soluble resistance-related calcium-binding protein (natural protein)
chain: MAYPGHPGAGGGYYPGGYGGAPGGPAFPGQTQDPLYGYFAAVAGQDGQIDADELQRCLTQSGIAGGYKPFNLETCRLMVSMLDRDMSGTMGFNEFKELWAVLNGWRQHFISFDTDRSGTVDPQELQKALTTMGFRLSPQAVNSIAKRYSTNGKITFDDYIACCVKLRALTDSFRRRDTAQQGVVNFPYDDFIQCVMSV

Reference: paper PMC8200006
